Earlier results as cited in PMC3433420.
Like-named read-outs stand apart in the source and are kept apart here.

How the values were obtained:
Conditions in all cases: cited from earlier work
PIK3R1-C (Homo sapiens) = PIK3R1-C (Homo sapiens) (UniProt P27986)
SHC3 (Homo sapiens) = SHC3 (Homo sapiens) (UniProt Q92529)
TEC (Homo sapiens) = TEC (Homo sapiens) (UniProt P42680)
DAPP1 (Homo sapiens) [1] = biological target: DAPP1 (Homo sapiens) (UniProt Q9UN19)
RASA1-N (Homo sapiens) [2] = biological target: RASA1-N (Homo sapiens) (UniProt P20936)
ITK (Homo sapiens) = ITK (Homo sapiens) (UniProt Q08881)
SH2D3A (Homo sapiens) = SH2D3A (Homo sapiens) (UniProt Q9BRG2)
GRB10 (Homo sapiens) = GRB10 (Homo sapiens) (UniProt Q13322)
SHC4 (Homo sapiens) = SHC4 (Homo sapiens) (UniProt Q6S5L8)
RASA1-N (Homo sapiens) [3] = biological target: RASA1-N (Homo sapiens) (UniProt P20936); remark: listed apart in the source
HCK (Homo sapiens) = HCK (Homo sapiens) (UniProt P08631)
ABL2 (Homo sapiens) = ABL2 (Homo sapiens) (UniProt P42684)
YES1 (Homo sapiens) = YES1 (Homo sapiens) (UniProt P07947)
SRC (Homo sapiens) = SRC (Homo sapiens) (UniProt P12931)
DAPP1 (Homo sapiens) [4] = biological target: DAPP1 (Homo sapiens) (UniProt Q9UN19); remark: listed apart in the source
PIK3R1-N (Homo sapiens) = PIK3R1-N (Homo sapiens) (UniProt P27986)
NCK2 (Homo sapiens) = NCK2 (Homo sapiens) (UniProt O43639)
VAV3 (Homo sapiens) [5] = biological target: VAV3 (Homo sapiens) (UniProt Q9UKW4)
PIK3R2-N (Homo sapiens) = PIK3R2-N (Homo sapiens) (UniProt O00459)
BLK (Homo sapiens) = BLK (Homo sapiens) (UniProt P51451)
TENC1 (Homo sapiens) = TENC1 (Homo sapiens) (UniProt Q63HR2)
SHC2-PTB (Homo sapiens) = SHC2-PTB (Homo sapiens) (UniProt P98077)
PIK3R3-C (Homo sapiens) = PIK3R3-C (Homo sapiens) (UniProt Q92569)
VAV1 (Homo sapiens) [6] = biological target: VAV1 (Homo sapiens) (UniProt P15498)
RASA1-NC (Homo sapiens) = RASA1-NC (Homo sapiens) (UniProt P20936)
SLA2 (Homo sapiens) = SLA2 (Homo sapiens) (UniProt Q9H6Q3)
GRB7 (Homo sapiens) = GRB7 (Homo sapiens) (UniProt Q14451)
PTPN6-C (Homo sapiens) = PTPN6-C (Homo sapiens) (UniProt P29350)
VAV3 (Homo sapiens) [7] = biological target: VAV3 (Homo sapiens) (UniProt Q9UKW4); remark: listed apart in the source
VAV2 (Homo sapiens) = VAV2 (Homo sapiens) (UniProt P52735)
VAV1 (Homo sapiens) [8] = biological target: VAV1 (Homo sapiens) (UniProt P15498); remark: listed apart in the source

Chain of VAV1 (Homo sapiens) (P15498 666-770): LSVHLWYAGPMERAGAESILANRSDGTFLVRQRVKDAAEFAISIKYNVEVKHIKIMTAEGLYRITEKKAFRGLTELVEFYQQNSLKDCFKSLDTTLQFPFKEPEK
Chain of RASA1-N (Homo sapiens) (P20936 176-446): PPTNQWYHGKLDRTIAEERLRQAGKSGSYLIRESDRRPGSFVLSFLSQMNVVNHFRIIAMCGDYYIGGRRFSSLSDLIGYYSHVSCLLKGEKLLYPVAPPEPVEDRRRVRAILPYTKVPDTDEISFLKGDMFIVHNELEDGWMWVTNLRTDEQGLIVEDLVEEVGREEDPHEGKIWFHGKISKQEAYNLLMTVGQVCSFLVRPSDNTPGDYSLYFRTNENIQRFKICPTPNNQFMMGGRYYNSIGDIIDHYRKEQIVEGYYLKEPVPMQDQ
Chain of DAPP1 (Homo sapiens) (Q9UN19 30-134): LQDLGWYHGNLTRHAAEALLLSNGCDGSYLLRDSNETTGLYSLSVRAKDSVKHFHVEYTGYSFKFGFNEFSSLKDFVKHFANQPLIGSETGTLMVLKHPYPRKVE
Chain of VAV3 (Homo sapiens) (Q9UKW4 667-771): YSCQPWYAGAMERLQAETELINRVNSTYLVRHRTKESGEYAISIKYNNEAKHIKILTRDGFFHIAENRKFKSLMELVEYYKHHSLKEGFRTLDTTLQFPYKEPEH
Chain of VAV2 (Homo sapiens) (P52735 668-772): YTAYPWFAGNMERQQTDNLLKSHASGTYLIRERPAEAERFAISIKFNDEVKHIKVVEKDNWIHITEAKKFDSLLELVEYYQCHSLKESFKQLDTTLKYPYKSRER
Chain of ITK (Homo sapiens) (Q08881 234-343): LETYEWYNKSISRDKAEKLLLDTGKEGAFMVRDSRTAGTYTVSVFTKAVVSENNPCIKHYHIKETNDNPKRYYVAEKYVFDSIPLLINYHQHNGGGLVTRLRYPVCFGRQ
Chain of TENC1 (Homo sapiens) (Q63HR2 1135-1252): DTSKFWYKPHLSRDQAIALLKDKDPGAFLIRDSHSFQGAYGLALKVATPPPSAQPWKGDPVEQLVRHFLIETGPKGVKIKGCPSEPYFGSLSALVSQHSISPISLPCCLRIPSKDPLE
Chain of PIK3R1-N (Homo sapiens) (P27986 328-723): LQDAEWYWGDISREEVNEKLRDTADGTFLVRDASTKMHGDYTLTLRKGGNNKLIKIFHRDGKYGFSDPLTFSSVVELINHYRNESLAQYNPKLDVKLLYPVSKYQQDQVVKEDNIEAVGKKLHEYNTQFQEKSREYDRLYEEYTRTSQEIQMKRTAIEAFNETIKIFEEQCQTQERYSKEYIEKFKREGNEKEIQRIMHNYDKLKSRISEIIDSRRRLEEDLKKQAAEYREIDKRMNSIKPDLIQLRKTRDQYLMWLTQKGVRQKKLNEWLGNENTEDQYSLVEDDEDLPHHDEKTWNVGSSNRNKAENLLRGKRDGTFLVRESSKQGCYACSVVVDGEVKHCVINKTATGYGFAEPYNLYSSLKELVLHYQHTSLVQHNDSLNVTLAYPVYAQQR
Chain of PIK3R1-C (Homo sapiens) (P27986 328-723): as above
Chain of GRB7 (Homo sapiens) (Q14451 426-532): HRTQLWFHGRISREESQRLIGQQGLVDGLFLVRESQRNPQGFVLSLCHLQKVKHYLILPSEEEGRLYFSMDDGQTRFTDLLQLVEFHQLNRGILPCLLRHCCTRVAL
Chain of SHC3 (Homo sapiens) (Q92529 494-594): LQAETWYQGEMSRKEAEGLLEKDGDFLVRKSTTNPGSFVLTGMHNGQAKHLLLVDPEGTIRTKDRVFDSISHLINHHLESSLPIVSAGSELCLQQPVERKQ
Chain of BLK (Homo sapiens) (P51451 119-225): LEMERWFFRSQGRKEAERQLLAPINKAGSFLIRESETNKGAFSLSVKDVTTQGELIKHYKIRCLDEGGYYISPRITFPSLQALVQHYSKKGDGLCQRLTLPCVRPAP
Chain of SLA2 (Homo sapiens) (Q9H6Q3 89-196): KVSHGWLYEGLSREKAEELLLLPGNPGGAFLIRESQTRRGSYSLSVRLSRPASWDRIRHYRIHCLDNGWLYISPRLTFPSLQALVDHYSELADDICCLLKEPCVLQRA
Chain of YES1 (Homo sapiens) (P07947 153-260): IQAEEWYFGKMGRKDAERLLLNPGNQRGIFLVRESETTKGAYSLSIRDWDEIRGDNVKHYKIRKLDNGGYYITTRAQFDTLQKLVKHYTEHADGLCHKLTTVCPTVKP
Chain of ABL2 (Homo sapiens) (P42684 168-268): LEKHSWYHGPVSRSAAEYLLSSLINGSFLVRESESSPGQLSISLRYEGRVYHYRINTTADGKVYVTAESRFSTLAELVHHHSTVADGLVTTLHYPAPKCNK
Chain of PTPN6-C (Homo sapiens) (P29350 1-218): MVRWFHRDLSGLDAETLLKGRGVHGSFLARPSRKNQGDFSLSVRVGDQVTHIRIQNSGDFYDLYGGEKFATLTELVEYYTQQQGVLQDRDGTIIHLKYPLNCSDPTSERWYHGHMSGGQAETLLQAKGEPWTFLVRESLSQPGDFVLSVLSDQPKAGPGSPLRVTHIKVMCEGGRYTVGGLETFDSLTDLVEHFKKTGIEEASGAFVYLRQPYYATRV
Chain of SHC2-PTB (Homo sapiens) (P98077 482-582): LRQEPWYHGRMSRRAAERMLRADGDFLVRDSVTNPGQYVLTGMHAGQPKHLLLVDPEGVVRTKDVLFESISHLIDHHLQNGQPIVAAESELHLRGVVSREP
Chain of SH2D3A (Homo sapiens) (Q9BRG2 10-119): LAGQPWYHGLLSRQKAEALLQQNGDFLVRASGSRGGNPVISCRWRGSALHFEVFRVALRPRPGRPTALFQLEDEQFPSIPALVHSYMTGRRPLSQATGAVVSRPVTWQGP
Chain of RASA1-NC (Homo sapiens) (P20936 176-446): as the sequence (P20936 176-446) above
Chain of NCK2 (Homo sapiens) (O43639 280-380): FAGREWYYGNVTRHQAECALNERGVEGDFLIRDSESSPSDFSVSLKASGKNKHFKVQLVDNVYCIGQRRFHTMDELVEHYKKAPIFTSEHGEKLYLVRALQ
Chain of GRB10 (Homo sapiens) (Q13322 488-579): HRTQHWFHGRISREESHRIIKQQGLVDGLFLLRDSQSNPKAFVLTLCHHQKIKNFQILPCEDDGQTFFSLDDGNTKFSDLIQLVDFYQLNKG
Chain of TEC (Homo sapiens) (P42680 242-350): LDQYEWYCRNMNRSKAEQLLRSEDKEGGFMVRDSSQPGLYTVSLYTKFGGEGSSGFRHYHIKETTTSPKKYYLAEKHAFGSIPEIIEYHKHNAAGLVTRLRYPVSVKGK
Chain of SHC4 (Homo sapiens) (Q6S5L8 521-622): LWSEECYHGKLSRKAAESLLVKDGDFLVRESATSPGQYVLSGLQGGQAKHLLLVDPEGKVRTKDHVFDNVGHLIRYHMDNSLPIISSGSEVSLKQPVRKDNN
Chain of HCK (Homo sapiens) (P08631 139-246): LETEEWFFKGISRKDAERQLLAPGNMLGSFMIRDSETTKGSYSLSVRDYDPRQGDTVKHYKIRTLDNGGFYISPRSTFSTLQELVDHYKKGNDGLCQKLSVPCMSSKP
Chain of PIK3R2-N (Homo sapiens) (O00459 325-721): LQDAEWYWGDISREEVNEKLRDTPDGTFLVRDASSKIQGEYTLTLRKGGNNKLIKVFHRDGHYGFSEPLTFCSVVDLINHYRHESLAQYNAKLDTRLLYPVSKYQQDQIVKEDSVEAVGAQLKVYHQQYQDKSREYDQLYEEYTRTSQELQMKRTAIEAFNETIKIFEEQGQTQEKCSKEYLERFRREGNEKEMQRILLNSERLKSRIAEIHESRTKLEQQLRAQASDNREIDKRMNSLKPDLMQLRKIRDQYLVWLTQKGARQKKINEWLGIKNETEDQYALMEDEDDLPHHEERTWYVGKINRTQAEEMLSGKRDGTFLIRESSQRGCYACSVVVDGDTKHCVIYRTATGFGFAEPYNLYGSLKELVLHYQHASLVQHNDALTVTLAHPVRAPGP

## …pYWDQDPPE
PIK3R1-C (Homo sapiens)
  apparent Kd (screen): 2000 nM
SHC3 (Homo sapiens)
  apparent Kd (screen): 1710 nM
TEC (Homo sapiens)
  apparent Kd (screen): 1600 nM
DAPP1 (Homo sapiens) [1]
  apparent Kd (screen): 2000 nM
RASA1-N (Homo sapiens) [2]
  apparent Kd (screen): 504 nM
ITK (Homo sapiens)
  apparent Kd (screen): 2000 nM
SH2D3A (Homo sapiens)
  apparent Kd (screen): 1600 nM
GRB10 (Homo sapiens)
  apparent Kd (screen): 486 nM
SHC4 (Homo sapiens)
  apparent Kd (screen): 2000 nM

## …pYEEMRAFQ
RASA1-N (Homo sapiens) [3]
  apparent Kd (screen): 1350 nM
HCK (Homo sapiens)
  apparent Kd (screen): 499 nM
ABL2 (Homo sapiens)
  apparent Kd (screen): 44 nM
YES1 (Homo sapiens)
  apparent Kd (screen): 2000 nM
SRC (Homo sapiens)
  apparent Kd (screen): 999 nM
DAPP1 (Homo sapiens) [4]
  apparent Kd (screen): 999 nM
PIK3R1-N (Homo sapiens)
  apparent Kd (screen): 210 nM
NCK2 (Homo sapiens)
  apparent Kd (screen): 1370 nM
VAV3 (Homo sapiens) [5]
  apparent Kd (screen): 2000 nM

## …pYLIPQQGFd
PIK3R2-N (Homo sapiens)
  apparent Kd (screen): 424 nM
BLK (Homo sapiens)
  apparent Kd (screen): 658 nM
TENC1 (Homo sapiens)
  apparent Kd (screen): 2000 nM
SHC2-PTB (Homo sapiens)
  apparent Kd (screen): 664 nM
PIK3R3-C (Homo sapiens)
  apparent Kd (screen): 193 nM
VAV1 (Homo sapiens) [6]
  apparent Kd (screen): 1050 nM
RASA1-NC (Homo sapiens)
  apparent Kd (screen): 1420 nM

## …pYLVPQQGF
SLA2 (Homo sapiens)
  apparent Kd (screen): 2000 nM
GRB7 (Homo sapiens)
  apparent Kd (screen): 2000 nM
PTPN6-C (Homo sapiens)
  apparent Kd (screen): 2000 nM
VAV3 (Homo sapiens) [7]
  apparent Kd (screen): 2000 nM
VAV2 (Homo sapiens)
  apparent Kd (screen): 2000 nM
VAV1 (Homo sapiens) [8]
  apparent Kd (screen): 2000 nM
